Source: the supplement of paper PMC10567573

B1: SETD8 (parent)
chain: FVVEYHGDLIEITDAKKREALYAQ
B2: TRIM35 (parent)
chain: WEVQVSPTCPVCKDRASPADLRTN

Variants of: B1
Test: protein stability index of a GFP-peptide fusion (GPS, HEK-293T) (PSI 1-6); higher = more stable
Conditions: c terminus: a fixed tail appended
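Note: lentivirally expressed fusions sorted by FACS into six bins by GFP to DsRed ratio, PSI derived from sequencing read proportions per bin multiplied by bin number.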

Protein stability index: each site, then its substitutions
V2: K 3.6; I 1.83; L 2.13; T 2.38; N 3.64; D 4.2; P 4.09; F 2.19; A 3.83; H 3.65; Y 1.66; R 3.02; G 3.95; C 3.25; Q 3.12; S 2.97; W 1.32; M 2.49; E 3.73
L9: G 1.59; P 2.26; Y 1.68; H 1.93; C 2.25; Q 2.73; D 2.91; S 1.74; I 1.59; N 2.86; M 1.46; K 2.58; R 1.8; W 1.47; A 2.31; T 2.06; E 2.42; V 2.47; F 3.03
T13: V 3.05; C 2.42; Q 3.21; F 3.25; D 1.97; R 2.07; P 2.65; S 2.46; E 1.76; Y 1.78; N 1.96; I 2.24; M 1.5; H 2.02; L 2.63; A 1.73; K 2.79; G 1.41
F1: M 2.71; L 1.85; G 4.8; V 2.5; H 4.35; K 3.65; N 4.78; T 4.14; I 2.37; P 4.46; S 4.43; R 3.74; C 3.3; D 4.46; A 4.23; Q 4.63; E 4.75; Y 2.62
A15: E 2.08; D 1.82; C 1.67; G 2.23; F 2.25
E4: L 2.61; T 1.74; W 1.44; H 1.6; A 2.3; K 1.45; V 1.6; I 1.03; Q 2.69; G 3.07; Y 1.72; C 1.82; P 1.84; F 1.88; R 1.97; S 1.76; N 1.92; D 2.35; M 1.67
G7: T 1.94; E 2.33; R 2.76; M 1.08; D 2.33; I 3.15; C 1.76; S 1.89; P 2.65; V 1.11; K 1.66; Q 1.83; N 2.34; H 2.08; F 2.87; A 1.56
V3: Q 2.32; R 2.02; P 2.03; F 1.51; A 1.81; G 3.07; K 2.36; M 2.64; I 2.83; D 2.15; H 2.77; Y 1.99; S 1.84; C 2.24; E 2.83; T 2.23; N 3.01; L 1.98; W 2.12
I10: F 2.1; M 1.67; T 2.01; K 2.28; V 1.56; W 1.21; R 1.82; E 2.21; S 2.21; C 1.99; L 2.17; G 2.11; D 2.58; Y 1.61; P 2.25; H 1.64; Q 2.5; N 1.88; A 2.08
Y5: P 3.03; R 2.67; T 2.32; C 2.05; V 2.06; S 2.41; H 2.1; F 1.88; E 3.86; D 3.2; M 2.11; N 2.73; W 1.43; G 2.4; I 1.95; Q 2.93; A 1.99; K 2.68; L 1.89
I12: Q 2.77; F 2.21; A 1.98; L 2.55; D 2.22; N 2.54; C 2.1; S 2.09; E 2.74; W 2.45; Y 1.56; K 2.75; G 1.64; H 2.48; M 1.72; P 2.36; T 2.02; R 2.48; V 2.18
E11: S 2.25; R 1.37; Y 2.56; Q 2.51; H 2.25; A 1.14; C 3.07; V 1.96; N 2.04; M 2.49; F 2.92; K 2.1; D 2.36; L 3.14; P 2.62; T 2.43
D8: P 1.83; G 2.01; N 1.7; C 2.01; M 3.28; E 2.15; S 2.33; L 2.85; Q 1.59; Y 1.84; H 1.56; F 2.77; V 3.4; A 1.65; K 1.82; T 1.45
D14: W 1.31; G 3.5; F 2.45; V 1.45; M 1.95; N 1.65; C 1.46; I 2.69; H 1.52; K 2.58; L 1.16; Q 2.13; S 1.88; P 1.37; R 1.72; A 2.08; T 1.21; E 2.75
H6: E 2.88; P 2; Q 2.06; M 2.04; L 2.02; F 2.12; S 2.31; I 2.19; G 2.15; Y 2.16; R 2.18; A 1.9; N 2.2; T 1.76; K 1.74; D 3.13; C 3.73; W 1.35

Variants of: B2
Test: as above
Conditions: c terminus: a fixed tail appended

Protein stability index: each site, then its substitutions
L21: A 3.04; K 3.15; C 3.26; W 2.62; Q 2.5; F 2; I 2.59; H 2.54; E 2.98; N 3.21; Y 2.57; M 2.13; T 2.62; S 2.58; V 3.33; G 2.04; R 2.37
R22: C 2.91; Q 3.33; S 2.91; H 2.54; P 3.74; K 3.34; N 2.75; G 2.03; V 3.75; I 2.7; D 3.8; E 4.1; F 2.22; T 2.91; Y 2.49; L 2.45
D20: N 2.2; K 2.08; H 1.66; Y 1.18; S 1.68; V 1.97; L 2.15; P 1.85; M 1.71; I 1.47
T23: F 1.82; I 2.18; Q 2.58; D 3.45; E 2.83; K 3.12; L 3.09; W 2.02; N 2.74; H 2.93; A 2.28; C 2.13; V 2.06; S 2.26; P 2.08; Y 1.73; M 2.5
N24: Y 1.6; P 2.47; D 3.14; K 3.12; I 1.7; M 1.55; F 1.55; V 1.19; S 2.57; L 1.71; C 2.43; E 2.29; R 2.74; A 2.29; Q 2.81; H 1.42
